In patent US20240392014A1 (OREGON HEALTH AND SCIENCE UNIVERSITY, published 2024):

Target: T1, CCR5 on CD4+ T cells of a Mauritian cynomolgus macaque (Mauritian cynomolgus macaque, UniProt P61814 1-352)
T1 construct: also called cynomolgus macaque CCR5
Test: in vivo CCR5 receptor occupancy on CD4+ T cells after AAV9-huLeron, flow cytometry; also near full CCR5 RO in mesenteric lymph nodes and spleen
Procedure: The ability of the leronlimab-delivering AAV to transduce myocytes, trigger them to produce leronlimab, and subsequently contain CCR5-tropic retroviral replication was tested. An AAV9 encoding human Fc leronlimab (AAV9-huLeron) was administered at 2×10¹² AAV genomes/kg of to a Mauritian cynomolgus macaque (MCM) chronically infected with the CCR5-tropic virus SHIVSF162P3. […] Leronlimab was detectable in plasma at week 3 after administration of leronlimab-AAV following achievement of full CCR5 receptor occupancy in peripheral blood (FIGS. 2A and 2C). Leronlimab persisted in the plasma for one year post leronlimab-AAV administration (FIG. 2A) without appearance of any ADA (FIG. 2B). Following leronlimab-AAV administration and full CCR5 RO on peripheral blood CD4+ T cells, plasma viral loads fell to undetectable levels. Plasma viremia “blips” that coincided with transient dips in CCR5 RO and plasma leronlimab levels were observed. Finally, CD4+ T cells from mesenteric lymph nodes (LN) and spleen maintained near full CCR5 RO (FIG. 2D). Cell-associated SHIV DNA (FIG. 2E) and RNA (FIG. 2F) decreased in blood and spleen, with minimal decreases in mesenteric LN.

B1: human Fc leronlimab (expressed in vivo from AAV9-huLeron) (antibody, V domains shown)
VH: EVQLVESGGGLVKPGGSLRLSCAASGYTFSNYWIGWVRQAPGKGLEWIGDIYPGGNYIRNNEKFKDKTTLSADTSKNTAYLQMNSLKTEDTAVYYCGSSFGSNYVFAWFTYWGQGTLVTVSS
VL: DIVMTQSPLSLPVTPGEPASISCRSSQRLLSSYGHTYLHWYLQKPGQSPQLLIYEVSNRFSGVPDRFSGSGSGTDFTLKISRVEAEDVGVYYCSQSTHVPLTFGQGTKVEIK
notes: also called PRO 140; PRO140
binding result: binds
